Target: human CD303 antigen (human) (UniProt Q8WTT0)
Experiment: cell-based or functional assay

Chain of human CD303 antigen (human) (Q8WTT0 whole entry): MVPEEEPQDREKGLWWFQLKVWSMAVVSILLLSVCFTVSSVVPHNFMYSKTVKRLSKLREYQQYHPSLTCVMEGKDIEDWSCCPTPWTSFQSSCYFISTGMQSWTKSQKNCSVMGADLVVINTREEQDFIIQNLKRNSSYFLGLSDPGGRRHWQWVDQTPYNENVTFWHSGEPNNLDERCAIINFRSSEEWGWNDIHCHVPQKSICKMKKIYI

EC50 (ng/mL), ADCC activity via CD16a: 1.68 ng/mL
Emax (% lysis), ADCC activity via CD16a: 29.3 % lysis
B1: humanized anti-CD303 antibody BIIB059 (antibody, INN chains, looked up, V domains shown)
VH: DVQLVESGGGLVKPGGSLRLSCAASGFTFSTYTMSWVRQAPGKGLEWVATISPGDSFGYYYPDSVQGRFTISRDNAKNSLYLQMNSLRAEDTAVYYCTRDIYYNYGAWFAYWGQGTLVTVSS
VL: DIQLTQSPSSLSASVGDRVTITCKASQSVDYDGDSYMNWYQQKPGKAPKLLIYAASTLESGVPSRFSGSGSGTDFTLTISSLQPEDFATYYCQQANEDPRTFGQGTKVEIK
